Measurements published in patent publication US20200055959A1 (UCB, published 2020).

What was measured:
[1] = target: T1, human serum albumin (human, UniProt P02768 25-609); assay: SPR, BIAcore T100; construct captured; HSA 50-6.25 nM as analyte; 1:1 model
T1 construct: Analyte in SPR, titrated 50-6.25 nM; also called HSA
Protocol: (§1) Single linker Fab-dsFv samples were captured to the sensor chip surface using either a human F(ab′)₂-specific goat Fab (Jackson ImmunoResearch, 109-006-097) or an in-house generated anti human CH1 monoclonal antibody. Covalent immobilisation of the capture antibody was achieved by standard amine coupling chemistry.
(§2) For kinetic assays, either a titration of human serum albumin 50-6.25 nM, or a single concentration of OX40 of 25 nM was performed. A blank flow-cell was used for reference subtraction and buffer-blank injections were included to subtract instrument noise and drift.
(§3) Kinetic parameters were determined by simultaneous global-fitting of the resulting sensorgrams to a standard 1:1 binding model using BIAcore T100 Evaluation software.

[2] = target: T1, human serum albumin; assay: SPR, BIAcore T100; construct captured by anti-human F(ab')2 Fab or anti-CH1 mAb; HSA 50-6.25 nM as analyte; 1:1 model
Protocol: as §1, §2, §3

[3] = target: T1, human serum albumin; assay: SPR, BIAcore T100; construct captured; HSA 50-6.25 nM as analyte; 1:1 model; repeat at end of run
Protocol: as §1, §2, §3

[4] = target: T1, human serum albumin; assay: SPR, BIAcore T100; construct captured; HSA 50-6.25 nM as analyte; 1:1 model; plasmid ratio 1:1:1
Protocol: as §1, §2, §3

[5] = target: T1, human serum albumin; assay: SPR, BIAcore T100; construct captured; HSA 50-6.25 nM as analyte; 1:1 model; plasmid ratio 1:1:2
Protocol: as §1, §2, §3

[6] = target: T1, human serum albumin; assay: SPR, BIAcore T100; construct captured; HSA 50-6.25 nM as analyte; 1:1 model; plasmid ratio 2:1:2
Protocol: as §1, §2, §3

[7] = target: T1, human serum albumin; assay: SPR, BIAcore T100; construct captured; HSA 50-6.25 nM as analyte; 1:1 model; plasmid ratio printed 1:1:1 (second such row)
Protocol: as §1, §2, §3

| Binder | Kd [1] | koff [1] | kon [1] | Kd [4] | koff [4] | kon [4] | Kd [5] | koff [5] | kon [5] | Kd [6] | koff [6] | kon [6] | further results |
| --- | --- | --- | --- | --- | --- | --- | --- | --- | --- | --- | --- | --- | --- |
| A26Fab-645dsFv (bispecific antibody, Expressed in HEK293; tested as supernatant; also called Fab-dsFv; A26Fab-645dsFv (start)) heavy: EVQLVESGGGLVQPGGSLRLSCAASGFTFTNYGIHWIRQAPGKGLEWVASISPSGGLTYYRDSVKGRFTISRDDAKNSPYLQMNSLRAEDTAVYYCATGGEGIFDYWGQGTLVTVSSASTKGPSVFPLAPSSKSTSGGTAALGCLVKDYFPEPVTVSWNSGALTSGVHTFPAVLQSSGLYSLSSVVTVPSSSLGTQTYICNVNHKPSNTKVDKKVEPKSCSGGGGSGGGGTGGGGSEVQLLESGGGLVQPGGSLRLSCAVSGIDLSNYAINWVRQAPGKCLEWIGIIWASGTTFYATWAKGRFTISRDNSKNTVYLQMNSLRAEDTAVYYCARTVPGYSTAPYFDLWGQGTLVTVSS light: DIQMTQSPSSLSASVGDRVTITCRATQSIYNALAWYQQKPGKAPKLLIYNANTLHTGVPSRFSASGSGTDSTLTISSLQPEDFATYYCQQYYDYPLTFGGGTKVEIKRTVAAPSVFIFPPSDEQLKSGTASVVCLLNNFYPREAKVQWKVDNALQSGNSQESVTEQDSKDSTYSLSSTLTLSKADYEKHKVYACEVTHQGLSSPVTKSFNRGECSGGGGSGGGGSGGGGSDIQMTQSPSSVSASVGDRVTITCQSSPSVWSNFLSWYQQKPGKAPKLLIYEASKLTSGVPSRFSGSGSGTDFTLTISSLQPEDFATYYCGGGYSSISDTTFGCGTKVEIKRT | – | – | – | – | – | – | – | – | – | – | – | – | Kd [2]: 2.01 nM; koff [2]: 0.000151 s⁻¹; kon [2]: 75100 M⁻¹ s⁻¹; Kd [3]: 3.11 nM; koff [3]: 0.000212 s⁻¹; kon [3]: 68200 M⁻¹ s⁻¹ |
| A26Fab-645dsscFv (HC-scFv) (bispecific antibody, To be checked by chain lengths; also called Fab-dsscFv (HC-scFv)) heavy: EVQLVESGGGLVQPGGSLRLSCAASGFTFTNYGIHWIRQAPGKGLEWVASISPSGGLTYYRDSVKGRFTISRDDAKNSPYLQMNSLRAEDTAVYYCATGGEGIFDYWGQGTLVTVSSASTKGPSVFPLAPSSKSTSGGTAALGCLVKDYFPEPVTVSWNSGALTSGVHTFPAVLQSSGLYSLSSVVTVPSSSLGTQTYICNVNHKPSNTKVDKKVEPKSCSGGGGTGGGGSEVQLLESGGGLVQPGGSLRLSCAVSGIDLSNYAINWVRQAPGKCLEWIGIIWASGTTFYATWAKGRFTISRDNSKNTVYLQMNSLRAEDTAVYYCARTVPGYSTAPYFDLWGQGTLVTVSSGGGGSGGGGSGGGGSGGGGSDIQMTQSPSSVSASVGDRVTITCQSSPSVWSNFLSWYQQKPGKAPKLLIYEASKLTSGVPSRFSGSGSGTDFTLTISSLQPEDFATYYCGGGYSSISDTTFGCGTKVEIKRT light: DIQMTQSPSSLSASVGDRVTITCRATQSIYNALAWYQQKPGKAPKLLIYNANTLHTGVPSRFSASGSGTDSTLTISSLQPEDFATYYCQQYYDYPLTFGGGTKVEIKRTVAAPSVFIFPPSDEQLKSGTASVVCLLNNFYPREAKVQWKVDNALQSGNSQESVTEQDSKDSTYSLSSTLTLSKADYEKHKVYACEVTHQGLSSPVTKSFNRGEC | 1.31 nM | 0.00024 s⁻¹ | 183000 M⁻¹ s⁻¹ | – | – | – | – | – | – | – | – | – | – |

The next lines start with results.

| Kd [1] | koff [1] | kon [1] | Kd [4] | koff [4] | kon [4] | Kd [5] | koff [5] | kon [5] | Kd [6] | koff [6] | kon [6] | Binder | further results |
| --- | --- | --- | --- | --- | --- | --- | --- | --- | --- | --- | --- | --- | --- |
| 1.29 nM | 0.000222 s⁻¹ | 172000 M⁻¹ s⁻¹ | – | – | – | – | – | – | – | – | – | A26Fab-645dsscFv (LC-scFv) (bispecific antibody, To be checked by chain lengths; also called Fab-dsscFv (LC-scFv)) heavy: EVQLVESGGGLVQPGGSLRLSCAASGFTFTNYGIHWIRQAPGKGLEWVASISPSGGLTYYRDSVKGRFTISRDDAKNSPYLQMNSLRAEDTAVYYCATGGEGIFDYWGQGTLVTVSSASTKGPSVFPLAPSSKSTSGGTAALGCLVKDYFPEPVTVSWNSGALTSGVHTFPAVLQSSGLYSLSSVVTVPSSSLGTQTYICNVNHKPSNTKVDKKVEPKSC light: DIQMTQSPSSLSASVGDRVTITCRATQSIYNALAWYQQKPGKAPKLLIYNANTLHTGVPSRFSASGSGTDSTLTISSLQPEDFATYYCQQYYDYPLTFGGGTKVEIKRTVAAPSVFIFPPSDEQLKSGTASVVCLLNNFYPREAKVQWKVDNALQSGNSQESVTEQDSKDSTYSLSSTLTLSKADYEKHKVYACEVTHQGLSSPVTKSFNRGECSGGGGSGGGGSEVQLLESGGGLVQPGGSLRLSCAVSGIDLSNYAINWVRQAPGKCLEWIGIIWASGTTFYATWAKGRFTISRDNSKNTVYLQMNSLRAEDTAVYYCARTVPGYSTAPYFDLWGQGTLVTVSSGGGGSGGGGSGGGGSGGGGSDIQMTQSPSSVSASVGDRVTITCQSSPSVWSNFLSWYQQKPGKAPKLLIYEASKLTSGVPSRFSGSGSGTDFTLTISSLQPEDFATYYCGGGYSSISDTTFGCGTKVEIKRT | – |
| – | – | – | 1 nM | 0.000209 s⁻¹ | 209000 M⁻¹ s⁻¹ | 1.11 nM | 0.000234 s⁻¹ | 211000 M⁻¹ s⁻¹ | 1.05 nM | 0.000207 s⁻¹ | 197000 M⁻¹ s⁻¹ | Single linker A26Fab-645dsFv (HC-vH linked) (bispecific antibody, Three polypeptides; the free 645dsvL is held to the linked 645dsvH by the disulphide G44C (vH) / G100C (vL); all are the same molecule; also called single linker Fab-dsFv (HC-vH)) heavy: EVQLVESGGGLVQPGGSLRLSCAASGFTFTNYGIHWIRQAPGKGLEWVASISPSGGLTYYRDSVKGRFTISRDDAKNSPYLQMNSLRAEDTAVYYCATGGEGIFDYWGQGTLVTVSSASTKGPSVFPLAPSSKSTSGGTAALGCLVKDYFPEPVTVSWNSGALTSGVHTFPAVLQSSGLYSLSSVVTVPSSSLGTQTYICNVNHKPSNTKVDKKVEPKSCSGGGGSGGGGTGGGGSEVQLLESGGGLVQPGGSLRLSCAVSGIDLSNYAINWVRQAPGKCLEWIGIIWASGTTFYATWAKGRFTISRDNSKNTVYLQMNSLRAEDTAVYYCARTVPGYSTAPYFDLWGQGTLVTVSS light: DIQMTQSPSSLSASVGDRVTITCRATQSIYNALAWYQQKPGKAPKLLIYNANTLHTGVPSRFSASGSGTDSTLTISSLQPEDFATYYCQQYYDYPLTFGGGTKVEIKRTVAAPSVFIFPPSDEQLKSGTASVVCLLNNFYPREAKVQWKVDNALQSGNSQESVTEQDSKDSTYSLSSTLTLSKADYEKHKVYACEVTHQGLSSPVTKSFNRGEC VL: DIQMTQSPSSVSASVGDRVTITCQSSPSVWSNFLSWYQQKPGKAPKLLIYEASKLTSGVPSRFSGSGSGTDFTLTISSLQPEDFATYYCGGGYSSISDTTFGCGTKVEIKRT | – |
| – | – | – | 3.17 nM | 0.000235 s⁻¹ | 74000 M⁻¹ s⁻¹ | 2.31 nM | 0.000262 s⁻¹ | 113000 M⁻¹ s⁻¹ | 1.49 nM | 0.000188 s⁻¹ | 126000 M⁻¹ s⁻¹ | Single linker A26Fab-645dsFv (LC-vL linked) (bispecific antibody, Three polypeptides; the free 645dsvH is held to the linked 645dsvL by the disulphide G44C (vH) / G100C (vL); all are the same molecule; also called single linker Fab-dsFv (LC-vL)) heavy: EVQLVESGGGLVQPGGSLRLSCAASGFTFTNYGIHWIRQAPGKGLEWVASISPSGGLTYYRDSVKGRFTISRDDAKNSPYLQMNSLRAEDTAVYYCATGGEGIFDYWGQGTLVTVSSASTKGPSVFPLAPSSKSTSGGTAALGCLVKDYFPEPVTVSWNSGALTSGVHTFPAVLQSSGLYSLSSVVTVPSSSLGTQTYICNVNHKPSNTKVDKKVEPKSC light: DIQMTQSPSSLSASVGDRVTITCRATQSIYNALAWYQQKPGKAPKLLIYNANTLHTGVPSRFSASGSGTDSTLTISSLQPEDFATYYCQQYYDYPLTFGGGTKVEIKRTVAAPSVFIFPPSDEQLKSGTASVVCLLNNFYPREAKVQWKVDNALQSGNSQESVTEQDSKDSTYSLSSTLTLSKADYEKHKVYACEVTHQGLSSPVTKSFNRGECSGGGGSGGGGSGGGGSDIQMTQSPSSVSASVGDRVTITCQSSPSVWSNFLSWYQQKPGKAPKLLIYEASKLTSGVPSRFSGSGSGTDFTLTISSLQPEDFATYYCGGGYSSISDTTFGCGTKVEIKRT VH: EVQLLESGGGLVQPGGSLRLSCAVSGIDLSNYAINWVRQAPGKCLEWIGIIWASGTTFYATWAKGRFTISRDNSKNTVYLQMNSLRAEDTAVYYCARTVPGYSTAPYFDLWGQGTLVTVSS | Kd [7]: 2.46 nM; koff [7]: 0.000223 s⁻¹; kon [7]: 91000 M⁻¹ s⁻¹ |
